Key:
HER3 ECD-HRG complex [1] = biological target: T1, HER3 ECD-HRG complex (human, UniProt P21860 20-643); assay: SPR Biacore 3000, antibody captured, 25 C
T1 construct: also called Heregulin/Her-3 ECD
Description: (§1) A CM5 series sensor was mounted into the system and was normalized in HBS-ET buffer (10 mM HEPES pH 7.4, 150 mM NaCl, 3 mM EDTA, 0.005% w/v Tween 20) according to the manufacturer's instructions. The sample buffer was the system buffer supplemented with 1 mg/ml CMD (Carboxymethyldextran). The system operated at 25° C. 10000 RU RAM-Fcγ(relative units of Fcγ-fragment Rabbit Anti-Mouse IgG/Jackson Laboratories) were immobilized according to the manufacturer's instructions using EDC/NHS chemistry on all flow cells. The sensor was deactivated using 1M ethanolamine. Analytes in solution were injected at 100 μl/min at different concentration steps of 0 nM, 1.1 nM, 3.7 nM, 11.1 nM, 33.1 nM and 90 nM for 2 min. The dissociation was monitored for 5 min. Acidic regeneration of the sensor surface was achieved using three consecutive injections of 10 mM Glycine pH 1.7 at 30 μl/min for 60 sec. Kinetic data were evaluated according to a Langmuir fit.

TtSlyD-FKBP-Her3 = biological target: T2, TtSlyD-FKBP-Her3; assay: SPR Biacore 3000, antibody captured, 25 C
T2 construct: 15 kDa; N-terminal Met may be present or not; also called Thermus thermophilus SlyD FKBP-Her3; thermo SlyD-Her3
T2 chain: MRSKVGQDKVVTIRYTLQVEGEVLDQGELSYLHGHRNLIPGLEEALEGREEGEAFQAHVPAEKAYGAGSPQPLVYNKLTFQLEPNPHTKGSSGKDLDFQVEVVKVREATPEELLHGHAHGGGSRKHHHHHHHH
Description: as §1

[2] = biological target: T3, human recombinant HER3 ECD (human, UniProt P21860 20-643); assay: SPR Biacore 3000, antibody captured, 25 C
T3 construct: 68 kDa; also called human-Her3-ECD; full length Her3 ECD
Description: as §1

HER3 ECD-HRG complex [3] = biological target: T1, HER3 ECD-HRG complex; assay: SPR Biacore T200, antibody captured, 25 C
Description: (§2) A Biacore T200 instrument (GE Healthcare) was mounted with a CM5 series sensor. The sensor was normalized in HBS-ET buffer (10 mM HEPES pH 7.4, 150 mM NaCl, 3 mM EDTA, 0.05% w/v Tween 20) according to the manufacturer's instructions. The sample buffer was the system buffer supplemented with 1 mg/ml CMD (Carboxymethyldextran, Sigma #86524). The system operated at 25° C. 6500 RU RAM-Fey (relative units of Fey-fragment RamIgG, GE Healthcare) were immobilized according to the manufacturer's instructions using amine coupling EDC/NHS chemistry on all four flow cells. The sensor was deactivated using 1M ethanolamine. […] Concentration dependent kinetics were measured. […] All analytes were injected for 5 min association time and 10 min dissociation time at 100 μl/min flow rate. The sensor capture system was regenerated by a 3 min injection at 10 μl/min of 10 mM glycine pH 1.7. Where possible kinetic data was evaluated using the Biacore T200 evaluation software.

HER4 ECD-HRG complex = biological target: T4, HER4 ECD-HRG complex (human, UniProt Q15303 26-651); assay: SPR Biacore T200, antibody captured, 25 C
T4 construct: HER4 ECD preincubated with a 5-fold molar excess of Heregulin; also called HER-4-ECD-RG
T4 sequence 1: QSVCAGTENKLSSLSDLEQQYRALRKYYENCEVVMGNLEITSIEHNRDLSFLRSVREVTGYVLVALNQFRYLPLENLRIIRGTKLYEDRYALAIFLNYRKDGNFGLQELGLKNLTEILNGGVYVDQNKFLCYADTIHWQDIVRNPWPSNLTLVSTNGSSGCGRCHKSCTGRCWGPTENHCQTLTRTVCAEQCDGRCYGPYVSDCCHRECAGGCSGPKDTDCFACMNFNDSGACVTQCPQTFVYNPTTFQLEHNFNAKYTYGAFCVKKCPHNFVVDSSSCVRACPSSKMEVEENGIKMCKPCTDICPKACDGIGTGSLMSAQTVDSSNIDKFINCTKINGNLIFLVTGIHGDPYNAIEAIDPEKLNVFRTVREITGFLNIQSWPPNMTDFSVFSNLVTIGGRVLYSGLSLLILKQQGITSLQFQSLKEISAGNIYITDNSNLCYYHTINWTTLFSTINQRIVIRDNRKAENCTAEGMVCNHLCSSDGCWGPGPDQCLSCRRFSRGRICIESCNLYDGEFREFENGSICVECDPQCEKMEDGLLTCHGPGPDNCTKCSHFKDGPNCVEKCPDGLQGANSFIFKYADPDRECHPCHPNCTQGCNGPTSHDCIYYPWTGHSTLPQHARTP
T4 sequence 2: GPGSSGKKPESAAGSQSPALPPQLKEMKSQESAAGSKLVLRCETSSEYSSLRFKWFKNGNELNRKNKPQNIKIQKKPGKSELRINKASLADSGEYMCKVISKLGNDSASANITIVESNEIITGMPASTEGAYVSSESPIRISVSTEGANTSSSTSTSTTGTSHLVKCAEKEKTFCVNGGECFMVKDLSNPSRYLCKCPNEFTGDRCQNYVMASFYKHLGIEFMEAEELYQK
Description: as §2

[4] = biological target: T3, human recombinant HER3 ECD; assay: SPR Biacore T200, antibody captured, 25 C
Description: as §2

TtSlyDcas = biological target: T5, TtSlyDcas; assay: SPR Biacore T200, antibody captured, 25 C
T5 construct: control scaffold without insert; N-terminal Met may be present or not
T5 chain: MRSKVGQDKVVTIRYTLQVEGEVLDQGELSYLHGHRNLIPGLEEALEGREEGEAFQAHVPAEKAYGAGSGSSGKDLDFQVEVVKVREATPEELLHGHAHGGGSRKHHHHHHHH
Description: as §2

[5] = biological target: T6, human recombinant HER4 ECD (human, UniProt Q15303 26-651); assay: SPR Biacore T200, antibody captured, 25 C
T6 construct: also called full length Her4 ECD
T6 sequence: T4 sequence 1
Description: as §2

human HER1 ECD = human HER1 ECD (human, UniProt P00533 25-645); assay: SPR Biacore T200, antibody captured, 25 C
Description: as §2

T3 sequence (P21860 20-643): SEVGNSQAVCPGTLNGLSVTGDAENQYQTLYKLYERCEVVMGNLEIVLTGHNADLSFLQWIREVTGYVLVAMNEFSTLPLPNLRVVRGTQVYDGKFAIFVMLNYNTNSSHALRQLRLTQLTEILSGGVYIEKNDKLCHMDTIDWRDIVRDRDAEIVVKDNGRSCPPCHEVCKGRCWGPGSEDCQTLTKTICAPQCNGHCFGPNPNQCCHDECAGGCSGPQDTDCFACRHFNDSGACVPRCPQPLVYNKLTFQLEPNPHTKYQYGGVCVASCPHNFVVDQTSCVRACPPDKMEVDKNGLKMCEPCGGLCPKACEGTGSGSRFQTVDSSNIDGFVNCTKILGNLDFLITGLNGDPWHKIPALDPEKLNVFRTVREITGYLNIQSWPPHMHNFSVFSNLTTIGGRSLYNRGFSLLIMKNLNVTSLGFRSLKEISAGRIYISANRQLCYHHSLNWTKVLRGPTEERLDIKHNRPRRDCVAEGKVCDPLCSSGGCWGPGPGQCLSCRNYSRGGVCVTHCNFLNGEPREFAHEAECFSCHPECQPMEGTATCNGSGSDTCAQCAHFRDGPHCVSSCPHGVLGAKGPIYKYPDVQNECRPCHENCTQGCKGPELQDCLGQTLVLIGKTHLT
T1 sequence (P21860 20-643 limits assumed, one chain of several): as the sequence (P21860 20-643) above

B1: anti-HER3/HER4 antibody M-05-74 (antibody, V domains shown)
VH: QVQLQQSGAELAKPGASVKMSCKTSGYTLTDYWIHWVKQRPGQGLEWIGYINPYTGYTESNQKFKDKATLTADKSSNTAYIQLSSLTSEDSAVYYCARPYYYGDYWGQGTTLTVSS
VL: QIVLTQSPAIMSASPGERVTITCSASSSVSYMHWFQQKPGTSPKLLIYSTSNLASGVPARFSGSGSGTSYSLTISRMEAEDAATYYCQQRSSYPFTFGSGTKLEIK
notes: murine monoclonal antibody from hybridoma (supernatant or purified); also called M-074; M-5-74
For B1, the “Binding Late BL” value (HER3 ECD-HRG complex [1]) was 199 RU, the “Molar Ratio MR” value (HER3 ECD-HRG complex [1]) was 0.8 and the “Binding Late BL” value (TtSlyD-FKBP-Her3) was 68.1 RU. For the same binder, the “Molar Ratio MR” value (TtSlyD-FKBP-Her3) was 1.5, the “Binding Late BL” value [2] was 36 RU and the “Molar Ratio MR” value [2] was 0.2. The “Molar Ratio MR” value (HER3 ECD-HRG complex [3]) was 0.8, the “Molar Ratio MR” value (HER4 ECD-HRG complex) was 0.8 and the “Molar Ratio MR” value [4] was 0.1. The “Molar Ratio MR” value (TtSlyDcas) was 0, the binding result (TtSlyDcas) was “no binding (tested: 90 nM)” and the “Molar Ratio MR” value [5] was 0.1. B1: no binding (tested: 90 nM) (human HER1 ECD).

— US20160002338A1 (Hoffmann-La Roche, published 2016)
